Test results: US20060270591A1, “Androgen receptor coregulators” (priority 2002, published 2006)

Target: T1, GR (Homo sapiens, UniProt P04150)
T1 sequence (P04150 1-777): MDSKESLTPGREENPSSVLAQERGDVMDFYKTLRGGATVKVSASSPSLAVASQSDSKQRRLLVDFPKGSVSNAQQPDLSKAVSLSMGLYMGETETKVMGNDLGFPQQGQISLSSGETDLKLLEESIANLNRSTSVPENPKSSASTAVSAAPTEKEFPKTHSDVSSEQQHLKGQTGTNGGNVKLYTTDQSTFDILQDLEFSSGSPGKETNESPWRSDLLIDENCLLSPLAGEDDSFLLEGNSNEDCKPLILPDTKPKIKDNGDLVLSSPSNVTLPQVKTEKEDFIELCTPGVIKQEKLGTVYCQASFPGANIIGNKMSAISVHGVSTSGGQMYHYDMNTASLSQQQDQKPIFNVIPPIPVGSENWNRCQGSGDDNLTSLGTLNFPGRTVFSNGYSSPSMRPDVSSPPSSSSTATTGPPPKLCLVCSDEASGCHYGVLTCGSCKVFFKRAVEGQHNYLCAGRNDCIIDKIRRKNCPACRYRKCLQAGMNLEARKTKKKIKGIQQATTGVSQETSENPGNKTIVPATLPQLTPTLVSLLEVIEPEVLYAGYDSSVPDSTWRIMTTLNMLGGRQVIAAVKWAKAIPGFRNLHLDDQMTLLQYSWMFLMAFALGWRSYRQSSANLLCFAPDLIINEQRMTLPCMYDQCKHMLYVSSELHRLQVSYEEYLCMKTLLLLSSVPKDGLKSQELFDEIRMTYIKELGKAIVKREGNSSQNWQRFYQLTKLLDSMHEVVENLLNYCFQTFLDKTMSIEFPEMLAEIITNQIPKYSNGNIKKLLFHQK
Experiment: GR transactivation reporter assay with SV
Type: cell-based
Set-up: expressed in transfected cells; host or cells: DU145, PC-3, HepG2
Details: MMTV-Luc; compared to AR
Protocol: 42. […] (A) The interaction of SV with AR, GR, PPAR-γ and ER-α is tested in mammalian two-hybrid assay. One μg plasmids expressing Gal4(DBD)-AR, GR, PPAR-γ or ER-α was co-transfected with 4 μg plasmids expressing VP16 or VP16-SVn to COS-1 cells. […] The assay method was the same as described in FIG. 29. Relative activities of ligand treatment to EtOH treatment are shown. (B) The coactivation function of SV in different receptors was assayed using reporter gene study. MMTV-Luc, PPRE-Luc, ERE-Luc are the reporter genes for AR, GR, PPAR-γ, and ER-α respectively. Lanes 1, 5, 9 and 13 are regarded as 1 fold in each panel.
475. In AR transactivation activity assays, transfections were performed using SuperFect (Qiagen, Chatsworth, Calif.) following protocols described in manual provided by Qiagen. Briefly, cells were plated on 35 mm dishes and after 24 h were transfected using the SuperFect kit. The total DNA amount was adjusted to 2 μg with pSG5 or pEGFP vectors. The medium was changed to DMEM with 10% CD-FBS 2 h after transfection. After 24 h, the DMEM with 10% CD-FBS was changed again, and the cells were treated with various steroids. Cells were harvested after 24 h for dual-luciferase assay as described in protocol provided by Promega. At least three independent experiments were carried out in each case.

For “SV: supervillin, 205 kDa actin binding protein; bovine SV (a.a. 1-1792) used in reporter assays”, the “effect on the transactivation of GR” value was “less enhancement effect”.
